Our source for the response values is article PMC3834829, “A signature motif mediating selective interactions of BCL11A with the NR2E/F subfamily of orphan nuclear receptors” (Nucleic Acids Research, 2013).

The labels stand for the following.
B1: LexA-BCL11A-(651–670) [not stated] / AAD-COUP-TFI-LBD-(151–467) [not stated] (parent complex)
chain 1: NTENVYSQWLAGYAASRQLK
chain 2: MRREAVQRGRMPPTQPNPGQYALTNGDPLNGHCYLSGYISLLLRAEPYPTSRYGSQCMQPNNIMGIENICELAARLLFSAVEWARNIPFFPDLQITDQVSLLRLTWSELFVLNAAQCSMPLHVAPLLAAAGLHASPMSADRVVAFMDHIRIFQEQVEKLKALHVDSAEYSCLKAIVLFTSDACGLSDAAHIESLQEKSQCALEEYVRSQYPNQPSRFGKLLLRLPSLRTVSSSVIEQLFFVRLVGKTPIETLIRDMLLSGSSFNWPYMSIQCS
B2: AAD-COUP-TFII-LBD-(144–414) [not stated] / LexA-BCL11A-(310–325) [not stated] (parent complex)
chain 1: MRREAVQRGRMPPTQPTHGQFALTNGDPLNCHSYLSGYISLLLRAEPYPTSRFGSQCMQPNNIMGIENICELAARMLFSAVEWARNIPFFPDLQITDQVALLRLTWSELFVLNAAQCSMPLHVAPLLAAAGLHASPMSADRVVAFMDHIRIFQEQVEKLKALHVDSAEYSCLKAIVLFTSDACGLSDVAHVESLQEKSQCALEEYVRSQYPNQPTRFGKLLLRLPSLRTVSSSVIEQLFFVRLVGKTPIETLIRDMLLSGSSFNWPYMAIQ
chain 2: PPAMDFSRRLRELAGN
B3: LexA-BCL11A-(310–325) [not stated] / AAD-EAR2-LBD-(121–399) [not stated] (parent complex)
chain 1: PPAMDFSRRLRELAGN
chain 2: MRKEAVQRGRIPHSLPGAVAASSGSPPGSALAAVASGGDLFPGQPVSELIAQLLRAEPYPAAAGRFGAGGGAAGAVLGIDNVCELAARLLFSTVEWARHAPFFPELPVADQVALLRLSWSELFVLNAAQAALPLHTAPLLAAAGLHAAPMAAERAVAFMDQVRAFQEQVDKLGRLQVDSAEYGCLKAIALFTPDACGLSDPAHVESLQEKAQVALTEYVRAQYPSQPQRFGRLLLRLPALRAVPASLISQLFFMRLVGKTPIETLIRDMLLSGSTFNWP
B4: LexA-BCL11A-(651–670) [not stated] / AAD-EAR2-LBD-(121–399) [not stated] (parent complex)
chain 1: NTENVYSQWLAGYAASRQLK
chain 2: B3 chain 2
B5: LexA-BCL11A-(310–325) [not stated] / AAD-PNR-LBD-(131–410) [not stated] (parent complex)
chain 1: PPAMDFSRRLRELAGN
chain 2: HLDSMESNTESRPESLVAPPAPAGRSPRGPTPMSAARALGHHFMASLITAETCAKLEPEDADENIDVTSNDPEFPSSPYSSSSPCGLDSIHETSARLLFMAVKWAKNLPVFSSLPFRDQVILLEEAWSELFLLGAIQWSLPLDSCPLLAPPEASAAGGAQGRLTLASMETRVLQETISRFRALAVDPTEFACMKALVLFKPETRGLKDPEHVEALQDQSQVMLSQHSKAHHPSQPVRFGKLLLLLPSLRFITAERIELLFFRKTIGNTPMEKLLCDMFKN

In one assay the parent is B1. As to the kind of experiment: yeast two-hybrid; read off a plot.
As for chain 1 NTENVYSQWAAGYAASRQLK [chain 1 L10A], the response was about 0 nmol/mg/min. The same measure, in the same setting: in the case of chain 1 NTENAYSQWLAGYAASRQLK [chain 1 V5A] it was about 220 nmol/mg/min.

Another assay covers variants of B2. As to the kind of experiment: yeast two-hybrid; read off a plot.
chain 1 MRREAVQRGRMPPTQPTHGQFALTNGDPLNCHSYLSGYISLLLRAEPYPTSRFGSQCMQPNNIMGIENICELAARMLFSAVEWARNIPFFPDLQITDQAALLRLTWSELFVLNAAQCSMPLHVAPLLAAAGLHASPMSADRVVAFMDHIRIFQEQVEKLKALHVDSAEYSCLKAIVLFTSDACGLSDVAHVESLQEKSQCALEEYVRSQYPNQPTRFGKLLLRLPSLRTVSSSVIEQLFFVRLVGKTPIETLIRDMLLSGSSFNWPYMAIQ [chain 1 V99A]: the response is about 640 nmol/mg/min. On the same count and under the same terms, in the case of chain 1 MRREAVQRGRMPPTQPTHGQFALTNGDPLNCHSYLSGYISLLLRAEPYPTSRFGSQCMQPNNIMGIENICELAARMLFSAVEWARNIPFFPDLQITDQVALLALTWSELFVLNAAQCSMPLHVAPLLAAAGLHASPMSADRVVAFMDHIRIFQEQVEKLKALHVDSAEYSCLKAIVLFTSDACGLSDVAHVESLQEKSQCALEEYVRSQYPNQPTRFGKLLLRLPSLRTVSSSVIEQLFFVRLVGKTPIETLIRDMLLSGSSFNWPYMAIQ [chain 1 R103A] it was about 330 nmol/mg/min; in that of chain 1 MRREAVQRGRMPPTQPTHGQFALTNGDPLNCHSYLSGYISLLLRAEPYPTSRFGSQCMQPNNIMGIENICELAARMLFSAVEWARNIPFFPDLQATDQVALLRLTWSELFVLNAAQCSMPLHVAPLLAAAGLHASPMSADRVVAFMDHIRIFQEQVEKLKALHVDSAEYSCLKAIVLFTSDACGLSDVAHVESLQEKSQCALEEYVRSQYPNQPTRFGKLLLRLPSLRTVSSSVIEQLFFVRLVGKTPIETLIRDMLLSGSSFNWPYMAIQ [chain 1 I95A], about 850 nmol/mg/min; in that of chain 1 MRREAVQRGRMPPTQPTHGQFALTNGDPLNCHSYLSGYISLLLRAEPYPTSRFGSQCMQPNNIMGIENICELAARMLASAVEWARNIPFFPDLQITDQVALLRLTWSELFVLNAAQCSMPLHVAPLLAAAGLHASPMSADRVVAFMDHIRIFQEQVEKLKALHVDSAEYSCLKAIVLFTSDACGLSDVAHVESLQEKSQCALEEYVRSQYPNQPTRFGKLLLRLPSLRTVSSSVIEQLFFVRLVGKTPIETLIRDMLLSGSSFNWPYMAIQ [chain 1 F78A], about 0 nmol/mg/min. Regarding chain 1 MRREAVQRGRMPPTQPTHGQFALTNGDPLNCHSYLSGYISLLLRAEPYPTSRFGSQCMQPNNIMGIENICELAARMLFSAVEWAANIPFFPDLQITDQVALLRLTWSELFVLNAAQCSMPLHVAPLLAAAGLHASPMSADRVVAFMDHIRIFQEQVEKLKALHVDSAEYSCLKAIVLFTSDACGLSDVAHVESLQEKSQCALEEYVRSQYPNQPTRFGKLLLRLPSLRTVSSSVIEQLFFVRLVGKTPIETLIRDMLLSGSSFNWPYMAIQ [chain 1 R85A], the response is about 2100 nmol/mg/min. On the same count and under the same terms, then chain 1 MRREAVQRGRMPPTQPTHGQFALTNGDPLNCHSYLSGYISLLLRAEPYPTSRFGSQCMQPNNIMGIENICELAARMLFSAAEWARNIPFFPDLQITDQVALLRLTWSELFVLNAAQCSMPLHVAPLLAAAGLHASPMSADRVVAFMDHIRIFQEQVEKLKALHVDSAEYSCLKAIVLFTSDACGLSDVAHVESLQEKSQCALEEYVRSQYPNQPTRFGKLLLRLPSLRTVSSSVIEQLFFVRLVGKTPIETLIRDMLLSGSSFNWPYMAIQ [chain 1 V81A], with about 960 nmol/mg/min.

In another assay the parent is B3. In words: yeast two-hybrid; read off a plot.
Turning to chain 1 PPAMDFSRRLREAAGN [chain 1 L13A], the response is about 0 nmol/mg/min. Still for that read-out and setting: then chain 1 PPAMDFARRLRELAGN [chain 1 S7A], with about 160 nmol/mg/min; and chain 1 PPAMDFSRRARELAGN [chain 1 L10A], with about 0 nmol/mg/min; and chain 1 PPAMDFSRRLAELAGN [chain 1 R11A], with about 1300 nmol/mg/min.

As for chain 1 PPAMDFSARLRELAGN [chain 1 R8A], the response was about 1000 nmol/mg/min.

Variants of B4 are the subject of a further assay. As to the kind of experiment: yeast two-hybrid; read off a plot.
chain 1 NTENVYAQWLAGYAASRQLK [chain 1 S7A]: the response was about 910 nmol/mg/min. Same read-out and setting: then chain 1 NTENAYSQWLAGYAASRQLK [chain 1 V5A], with about 190 nmol/mg/min; and chain 1 NTENVYSQWLAGAAASRQLK [chain 1 Y13A], with about 0 nmol/mg/min. Same read-out and setting: then chain 1 NTENVYSQWLAAYAASRQLK [chain 1 G12A], with about 1800 nmol/mg/min; and chain 1 NTENVYSQWAAGYAASRQLK [chain 1 L10A], with about 0 nmol/mg/min; and chain 1 NTENVYSAWLAGYAASRQLK [chain 1 Q8A], with about 900 nmol/mg/min.

chain 1 NTENVASQWLAGYAASRQLK [chain 1 Y6A]: the response is about 840 nmol/mg/min. The same measure, in the same setting: in the case of chain 1 NTENVYSQALAGYAASRQLK [chain 1 W9A] it was about 130 nmol/mg/min.

Variants of B5 are the subject of a further assay. In words: yeast two-hybrid; read off a plot.
chain 1 F6A: the response was about 0 nmol/mg/min. With chain 1 S7A, the response is about 2500 nmol/mg/min. The same measure, in the same setting: in the case of chain 1 L10A it was about 0 nmol/mg/min; in that of chain 1 R11A, about 0 nmol/mg/min; in that of chain 1 L13A, about 0 nmol/mg/min.

With chain 1 R8A, the response was about 0 nmol/mg/min.
